# Data reported in the nanobody polyreactivity screen of Harvey et al. (2022).
# Assay: yeast display, Sf9 membrane polyspecificity reagent, FACS + sequencing; frameworks hold sequencing errors
# Outline: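 In a synthetic yeast display library (Saccharomyces cerevisiae BJ5465), nanobody expression was induced with galactose for 36–48 hours. FACS gates were set low and high (top ~1%) using anti-HA fluorescence for expression and streptavidin fluorescence for binding of the Sf9 membrane reagent. Each polyreactivity label is drawn from the gate of origin.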
row,Sequence,polyreactivity (PSR sort gate)
1,QVQLVESGGGLVQAGGSLRLSCAASGSIFRSYALGWYRQSPGKERELVASISRRGGSTYYADSVKGRFTISRDNAKNTVYLQMNSLKPEDTAVYYCAAVRYNSRVSTTPSEMYYWGQGTQVTVSS,low polyreactivity
2,QVQLVESGGGLVQAGGSLRLSCAASGSIFRSYAMGWYRQAPGKERELVAAISRRGSSTYYADSVKGRFTISRDNAKNTVYLQMNSLKPEDTAVYYCNRVRYPRVDYWGQGTQVTVSS,high polyreactivity
3,QVQLVESGGGLVQAGGSLRLSCAASGSIFRSYAMGWYRQAPGKERELVASITRSSGSTYYADSVKGRFTISRDNAKNTVYLQMNSLKPEDTAVYYCNAVVSKSRRFRVDYWGQGTQVTVSS,high polyreactivity
4,QVQLVESGGGLVQAGGSLRLSCAASGSIFRSYAMGWYRQSPGKERELVASISRRGGSTYYADSVKGRFTISRDNAKNTVYLQMNSLKPEDTAVYYCAAVRYNSRVSTTPSDMYYWGQGTQVTVSS,low polyreactivity
5,QVQLVESGGGLVQAGGSLRLSCAASGSIFRTYAKGWYRQAPGKERELVATITFGGVSTYYADSVKGRFTISRDNAKNTVYLQMNSLKPEDTAVYYCAADVYTRFWRVYRFDYWGQGTQVTVSS,low polyreactivity
6,QVQLVESGGGLVQAGGSLRLSCAASGSIFRTYAMGWYRQAPGKERELVATITFGGVSTYYADSVKGRFTISRDNAKITVYLQMNSLKPEDTAVYYCAADVYTRFWRVYRFDYWGQGTQVTVSS,low polyreactivity
7,QVQLVESGGGLVQAGGSLRLSCAASGSIFRTYAMGWYRQAPGKERELVATITFGGVSTYYADSVKGRFTISRDNAKTTVYVQKTSLKPEDTAVYYCAAEVYTRFWRVYRFDYWGQGTQVTVSS,low polyreactivity
8,QVQLVESGGGLVQAGGSLRLSCAASGSIFRVYAMGWYRQAPGKERELVAAISTRGGSTYYADSVKGRFTISRDNAKNTVYLQMNSLNPEDTAVYYCAKRWPQYPDYKPMYYWGQGTQVTVSS,high polyreactivity
9,QVQLVESGGGLVQAGGSLRLSCAASGSIFRVYAMGWYRQAPGKERELVAGISSRGGTSTYYADSVKGRFTISRDNAKNTVYLQMNSLKPEDTAVYYCAVQVRYPGYDYWGQGTQVTVSS,low polyreactivity
10,QVQLVESGGGLVQAGGSLRLSCAASGSIFRVYVMGWYRQAPGKERELVARIRYRSGRTNYADSVKGRFTISRDNAKNTVYLQMNSLKPEDTAVYYCSADVYWPTAGDYTQKRDYWGLGTQVTVSS,high polyreactivity
11,QVQLVESGGGLVQAGGSLRLSCAASGSIFRWNAMGSYRQAPGKERELVAVINSSGGSTYYADSVKGRFTISRDNAKNTVYLQMNSLKPEDTAVYYCAAVIYKIIYGQYAYDYWGQGTQVTVSS,low polyreactivity
12,QVQLVESGGGLVQAGGSLRLSCAASGSIFRWNAMGWYRQAPGKERELVAAIDSGGSTYADSVKGRFTISRDNAKNTVYLQMNSLKPEDTAVYYCAAAIPDEWPYDYWGQGTQVTVSS,low polyreactivity
13,QVQLVESGGGLVQAGGSLRLSCAASGSIFRWYAMGWYRQAPGKERELVAAISRRGGRTYYADSVKGRFTISRDNAKNTVYLQMNSLKPEDSAVYYCNADFGYRLPGNYWGQGTQVTVSS,low polyreactivity
14,QVQLVESGGGLVQAGGSLRLSCAASGSIFRWYAMGWYRQAPGKERELVAAISTSGGNTYYADSVKGRFTISRDNAKNTVYLQMNSLKPEDTAVYYCNALWYRSLSYRYDYWGQGTQVTVSS,high polyreactivity
15,QVQLVESGGGLVQAGGSLRLSCAASGSIFRWYAMGWYRQAPGKERELVAAISYSGGSTYYADSVKGRFTISRDNAKNTVYLQMNSLKPEDTAVYYCARLGWKPITAARDYWGQVTQVTVSS,high polyreactivity
16,QVQLVESGGGLVQAGGSLRLSCAASGSIFRWYAMGWYRQAPGKERELVAAITSGGSTYYADSVKGRFTISRDNAKNTVYLQMNSLKPEDTAVYYCNAAKLASHTYDYWGLGTQVTVSS,low polyreactivity
17,QVQLVESGGGLVQAGGSLRLSCAASGSIFRYNAMGWYRQAPGKERELVAAISASGGRTHDADSVKGRFTISRDNAKNTVYLQMNSLKPEDTAVYYCAAATYRGTSLYGYWGQGTQVTVSS,high polyreactivity
18,QVQLVESGGGLVQAGGSLRLSCAASGSIFRYNAMGWYRQAPGKERELVASISWSGGSTYYADSVKGRFTISRDNAKNTVYLQMNSLKPEDNAFYYCNVYGKYFRSRYDSWGQGTQVNVSS,high polyreactivity
19,QVQLVESGGGLVQAGGSLRLSCAASGSIFRYNAMGWYRQEPGKERELVASINGGGGTYYPDSVKGRFTISRDNAKNTVYLQMNSLKPEDTAVLYCNTVVNSFSYASRFNFYYWGQGSQVTVSS,high polyreactivity
20,QVQLVESGGGLVQAGGSLRLSCAASGSIFRYYAMGWYRQAPGKERELVAGITGSTGRTYYADSVKGRFTISRDKAKNTVYLELNSLKPVDTEVYYCSARSRYYEYDYWGQGTQVTVTS,low polyreactivity
21,QVQLVESGGGLVQAGGSLRLSCAASGSIFRYYAMGWYRQAPGKERELVAVITRGGSTYYADSVKGRFTISRDNAKNTVYLQMNSLKPEDTAVYYCAADYWPACMDRGYWGQATQVTVSS,low polyreactivity

row,Sequence,polyreactivity (PSR sort gate)
1,QVQLVESGGGLVQAGGSLRLSCAASGSIFSAYAMGWYRQAPGKEREFVAGITSSGGRTYYADSVKGRFTISRDNAKNTVYLQMNSLKPEDTAVYYCAARFYKKDRRAYGYWGQGTQVTVSS,high polyreactivity
2,QVQLVESGGGLVQAGGSLRLSCAASGSIFSAYAMGWYRQAPRKEREFVAAITRRGGNTYYADSVKGRFTISRDNAKNTVYLQMNSLKPEDTAVYYCAAGFYYVYVWLGEYWGQGTQVTVSS,low polyreactivity
3,QVQLVESGGGLVQAGGSLRLSCAASGSIFSDNAMGWYRQAPGKERELVAGISSGGGTNYADSVKGRFTISRDNAKNTVYLQMNSLKPEDTGVYDCNADQRDGLELDYWGQGTQVTVSS,low polyreactivity
4,QVQLVESGGGLVQAGGSLRLSCAASGSIFSDYAMGWYRQAPGKEREFVAAIDSSGSTYYADSVKGRFTISRDNAKNTVYLQMNSLKPEDTAVYYCAADHLLYSVYIYYYWGQGTQVTVSS,low polyreactivity
5,QVQLVESGGGLVQAGGSLRLSCAASGSIFSDYAMGWYRQAPGKERELVAAISGTGGGTYYADSVKGRFTISRDNAKNTVYLQMNSLKPEDTAVYYCAADYVFAWWGDYYWGQGTQVTVSS,high polyreactivity
6,QVQLVESGGGLVQAGGSLRLSCAASGSIFSDYAMGWYRQAPGKERELVAGISSGGGTTYADSVKGRFTISRDNAKNTVYLQMNSLIPEDTAVYYCNKQDQPVGRSGYPYGYDYWGQGTQVTVSS,low polyreactivity
7,QVQLVESGGGLVQAGGSLRLSCAASGSIFSFNAKGWYRQAPGKERELVAAITTSGGSTYYADSVKGRFTISRDNAKNTVYLQMNSLKPEDTAVYYCAAVRPDNSLYEPMDYWGQGTQVTVSS,low polyreactivity
8,QVQLVESGGGLVQAGGSLRLSCAASGSIFSFNAMGWYRQAPGKERELVAAISYSGGSTYADSVKGRFTISRDNAKNTVYLHMNSLKPEDTAVYYCAADGLDYSSGGDGYWGQGTQVTVSS,low polyreactivity
9,QVQLVESGGGLVQAGGSLRLSCAASGSIFSFYAMGGYRQPPGKEREFVATITYGSGSTHYADSVKGRFTISRDNAKITVYLQLNSLKPEDTAVYYCAAETVRYEWGESPAALFDYWGQGTQVTVSS,low polyreactivity
10,QVQLVESGGGLVQAGGSLRLSCAASGSIFSFYAMGWYRQAPGKERELVATISSGDNTNYADSVKGRFTISRDNAKNTVYLQMNSLKPEDTAVYYCAADAWGVDREYDYWGQGTQVTVSS,low polyreactivity
11,QVQLVESGGGLVQAGGSLRLSCAASGSIFSFYAMGWYRQAPGKRELVAAISGNGGSTFYADSVKGRFTISRDNAKNTVYLQMNSLKPEDTAVYYCAAYSYRYKYYYWGQGTQVTVSS,high polyreactivity
12,QVQLVESGGGLVQAGGSLRLSCAASGSIFSFYMGWYRQAPGKERELVAAISSRGGSTYYADSVKGRFTISRDNAKNTVYLQMISLKPEDTAVYYCAAAGGGKVSYRDYDYWGQGTQVTVSS,high polyreactivity
13,QVQLVESGGGLVQAGGSLRLSCAASGSIFSGKAMGWYRQAPGKERELVASINRSGGSTYSADSVKGRFTISRDNAKYTVYLQMNSLKPEDTAVYSCAARRVWLAGYDSWGQGTQVTVSS,low polyreactivity
14,QVQLVESGGGLVQAGGSLRLSCAASGSIFSGYAMGWYRQAPGKEREFVAAISSSGGRTYYADSVKGRFTISRDNAKNTVYLQMNSLKPEDTAVYYCNAVSSYGYDYWGQGTQVTVSS,high polyreactivity
15,QVQLVESGGGLVQAGGSLRLSCAASGSIFSGYAMGWYRQAPGKERELVAAITGGGSTNYADSVKGRFTISRDNAKNTVYLQMTSLKPEDTAVYYCAAAPVSLPDYGYWGQGTQVTVSS,low polyreactivity
16,QVQLVESGGGLVQAGGSLRLSCAASGSIFSGYTMGWYRQAPGKERELVAAITQRGTRTYYADSVKGRFTISRDNAKNTVYLQMNSLKPEDTAVYYCAADSVVVGSPGNDYWGQGTQVTVSS,high polyreactivity
17,QVQLVESGGGLVQAGGSLRLSCAASGSIFSHNAMGGYRQAPGKERELVASITGSGGSTYYAASVKGRFTISRDNAKNTVYLQMNSLKPEDTAVYYCAATYYPDVRGMDYWGQGTQVTVSS,low polyreactivity
18,QVQLVESGGGLVQAGGSLRLSCAASGSIFSHNAMGWYRQAPGKERELVAAISRSGGSTYYADSVKGRFTISRDNAKNTVYLQMKSLKPEDTAVYYCAVRAYKVSRYYYWGQGSQVTVSS,low polyreactivity
19,QVQLVESGGGLVQAGGSLRLSCAASGSIFSINAMGWYRQAPGKERELVAAISWSGGSTYYADSVKGRFTISRDNAKNTVYLQMNSLKPEDTAVYYCAASYWDTEPGYREYDYWGQGTQVTVSS,low polyreactivity
20,QVQLVESGGGLVQAGGSLRLSCAASGSIFSINAMVSYRQAPGKERELVAAISASGGSTYYADSVKGRFTISRDFAKITVYLHMNSLKPEDTAVFYCAAEGSPTGYDYWGQGTQVTVSS,low polyreactivity
